Literature values in PMC2994893.

Biological target: Lck phospho-Tyr505 motif pTyr505 motif (Homo sapiens) (UniProt P06239)

In the case of Lck SH2 (from UniProt P06239), the Kd is listed as 0.3 µM.
